# Results taken from publication PMC2275150.
# T1: Cdc13-DBD (Saccharomyces cerevisiae, UniProt P32797 497-694)
# T1 sequence: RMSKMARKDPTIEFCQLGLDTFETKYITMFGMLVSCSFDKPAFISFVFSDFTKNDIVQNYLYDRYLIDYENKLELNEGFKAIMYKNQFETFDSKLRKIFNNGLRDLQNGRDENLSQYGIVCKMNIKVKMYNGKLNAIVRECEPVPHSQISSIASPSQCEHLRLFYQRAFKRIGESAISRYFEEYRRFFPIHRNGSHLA
# B1: Tel11 (ssDNA)
# DNA: GTGTGGGTGTG
# Biological target: T1, Cdc13-DBD
# Experiment: NMR
binder,measurement,value
B1,binding result,binds
